Laboratory results as given in PMC8472270.

Legend:
[1] = molecular target: Exendin-4 (Heloderma suspectum) (UniProt P26349); assay: static and dynamic light scattering (SLS/DLS); peptide concentration series in PBS, pH 7.4, 23 °C; scattering angle 90°; relative molecular mass and Stokes radius; monomer to oligomer
Exendin-4_F22R [2] = assay: concentration-dependent Stokes radius of self-association (method not named in legend); conditions: parent: est. 2.3; read off a plot
Exendin-4_F22R [3] = assay: concentration-dependent relative molecular mass of self-association (method not named in legend); conditions: parent: est. 3.2; read off a plot

**Q.** Which stoichiometry N [1] does the source give for “Exendin-4 (from UniProt P26349 48-87) (peptide)” here?
**A.** 3

**Q.** How did the other: Stokes radius RS (Exendin-4_F22R [2]) turn out when Exendin-4 (from UniProt P26349) F22R was run?
**A.** 1.6 nm

**Q.** What about the other: relative molecular mass Mrel (Exendin-4_F22R [3]) of the same substance?
**A.** 0.95
